Assay results from patent US20140112926A1.

Experiments:
[1] = molecular target: GST-tagged version of human FcγRIIIA (human) (UniProt P08637); experiment: AlphaLISA vs biotin-huIgG, supernatant, round 2
[2] = molecular target: GST-tagged version of human FcγRIIIA (human) (UniProt P08637); experiment: AlphaLISA vs biotin-huIgG, supernatant, round 1
[3] = molecular target: GST-tagged version of human FcγRIIIA (human) (UniProt P08637); experiment: AlphaLISA vs biotin-huIgG, supernatant, round 3

Sequence of GST-tagged version of human FcγRIIIA (human) (P08637 17-208 limits assumed): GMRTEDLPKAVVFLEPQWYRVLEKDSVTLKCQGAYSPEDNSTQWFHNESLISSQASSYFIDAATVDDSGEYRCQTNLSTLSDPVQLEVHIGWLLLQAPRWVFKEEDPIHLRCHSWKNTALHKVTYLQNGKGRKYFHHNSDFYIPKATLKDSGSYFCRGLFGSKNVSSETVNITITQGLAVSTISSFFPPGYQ

% inhibition [1]	Alpha signal [1]	% inhibition [2]	Alpha signal [2]	Alpha signal [3]	% inhibition [3]	Substance
33.1%	53800	31.1%	52400	55700	–	scFv-Fc/Fc, K290G in scFv-Fc (from UniProt P0DOX5 218-449; P0DOX5 218-449) (Fc fusion)
53.1%	37700	43.3%	43100	32400	58.7%	scFv-Fc/Fc, F243M in dummy Fc (Fc fusion)
29%	57100	20%	60800	51700	34.2%	scFv-Fc/Fc, K246W in dummy Fc (Fc fusion)
23.2%	61700	15%	64600	62200	20.9%	scFv-Fc/Fc, G236Y in scFv-Fc (Fc fusion)
47.3%	42400	40.6%	45100	37900	51.8%	scFv-Fc/Fc, K246S in dummy Fc (Fc fusion)
42.9%	45900	27.5%	55100	50500	35.7%	scFv-Fc/Fc, L234Y in scFv-Fc (Fc fusion)
22.6%	62200	20.2%	60600	61600	21.6%	scFv-Fc/Fc, H268K in scFv-Fc (from UniProt P0DOX5 218-449; P0DOX5 218-449) (Fc fusion)
28.6%	57400	39.4%	–	55200	29.7%	scFv-Fc/Fc, F243L in scFv-Fc (Fc fusion)
74.6%	20400	75.1%	18900	18400	76.5%	scFv-Fc/Fc, I332E in scFv-Fc (Fc fusion)
23.5%	61500	20.4%	60500	63500	19.1%	scFv-Fc/Fc, L309S in scFv-Fc (Fc fusion)
90.2%	7890	87.9%	9170	10200	87%	scFv-Fc/Fc, K290Y in scFv-Fc (Fc fusion)
60.5%	31800	59.9%	30500	28800	63.3%	scFv-Fc/Fc, T256V in dummy Fc (Fc fusion)
72.9%	21800	66.7%	25300	24800	68.5%	scFv-Fc/Fc, Y296W in scFv-Fc (Fc fusion)
0%	80400	0%	76000	78600	0%	scFv-Fc/Fc, no substitution (charge pair mutations only) (Fc fusion)
86.2%	11100	82.7%	13100	9800	87.5%	scFv-Fc/Fc, Q311M in dummy Fc (Fc fusion)
87.7%	9880	85.8%	10800	11500	85.3%	scFv-Fc/Fc, I332E in dummy Fc (Fc fusion)
75%	20100	73%	20600	–	51%	scFv-Fc/Fc, K290G in dummy Fc (Fc fusion)

% inhibition [1]	Alpha signal [1]	% inhibition [2]	Alpha signal [2]	Alpha signal [3]	% inhibition [3]	Substance
83%	13700	84.8%	11600	12500	84.1%	scFv-Fc/Fc, F243V + S239T in dummy Fc (Fc fusion)
60.1%	32100	49%	38800	29300	62.8%	scFv-Fc/Fc, F243V in dummy Fc (Fc fusion)
76.5%	18900	69.2%	23400	27200	65.4%	scFv-Fc/Fc, L309K in scFv-Fc (Fc fusion)
–	–	–	32500	–	51%	scFv-Fc/Fc, T307G in scFv-Fc (Fc fusion)
36.5%	51000	31.5%	52100	47000	40.2%	scFv-Fc/Fc, K248Y in dummy Fc (Fc fusion)
85.4%	11800	84.9%	11500	26100	66.7%	scFv-Fc/Fc, S239E + K340N in dummy Fc (Fc fusion)
75.1%	20000	75%	19000	14100	82.1%	scFv-Fc/Fc, T307P in dummy Fc (Fc fusion)
79%	16900	–	24300	21400	–	scFv-Fc/Fc, S239D in scFv-Fc (Fc fusion)
75.8%	19500	65.8%	26000	28800	63.4%	scFv-Fc/Fc, N315S in scFv-Fc (Fc fusion)
–	25800	60.8%	29800	23800	–	scFv-Fc/Fc, F243I in dummy Fc (Fc fusion)
–	19700	68.7%	23800	28600	63.6%	scFv-Fc/Fc, N315A in scFv-Fc (Fc fusion)
76.3%	19100	65.1%	26500	20800	73.5%	scFv-Fc/Fc, T256Q in scFv-Fc (from UniProt P0DOX5 218-449; P0DOX5 218-449) (Fc fusion)
42.1%	–	41.3%	–	51400	34.6%	scFv-Fc/Fc, T307S in scFv-Fc (Fc fusion)
–	35400	–	30100	32200	–	scFv-Fc/Fc, E294L in dummy Fc (Fc fusion)
35.2%	52100	24.5%	57400	51300	34.7%	scFv-Fc/Fc, I253K in scFv-Fc (Fc fusion)
92.3%	6160	91.9%	6120	9870	87.4%	scFv-Fc/Fc, S239D in dummy Fc (Fc fusion)
